For this experiment, the target named is PSD-95 PDZ1 mutant (ED6N) (UniProt P78352). The experiment can be described thus: ITC. On the technique in general: Isothermal titration calorimetry measures the heat released or taken up as one component is titrated into another.
Sequence of PSD-95 PDZ1 mutant (ED6N) (P78352 60-151, change not shown): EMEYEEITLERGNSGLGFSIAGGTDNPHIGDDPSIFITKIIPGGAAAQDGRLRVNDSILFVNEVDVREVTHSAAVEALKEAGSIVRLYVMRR

B1: Stg_CT WT (domain or fragment)
chain: DRHKQLRATARATDYLQASAITRIPSYRYRYQRRSRSSSRSTEPSHSRDASPVGVKGFNTLPSTEISMYTLSRDPLKAATTPTATYNSDRDNSFLQVHNCIQKDSKDSLHANTANRRTTPV
Regarding B1, the fold weakening of binding against PDZ1 WT was 8 fold.
